Source: patent US20120284877
Positions count from the first letter of the chain named.

Columns and labels:
Assay in all cases: cell_activity
Details in all cases: A. thaliana GUS recombination
[1] = target: T1, NLS-I-SceI C term mod #1-AlcR(1-60) (VC-SAH128-3, SAH126-1) (Saccharomyces cerevisiae / Aspergillus nidulans) (UniProt P03882)
T1 sequence: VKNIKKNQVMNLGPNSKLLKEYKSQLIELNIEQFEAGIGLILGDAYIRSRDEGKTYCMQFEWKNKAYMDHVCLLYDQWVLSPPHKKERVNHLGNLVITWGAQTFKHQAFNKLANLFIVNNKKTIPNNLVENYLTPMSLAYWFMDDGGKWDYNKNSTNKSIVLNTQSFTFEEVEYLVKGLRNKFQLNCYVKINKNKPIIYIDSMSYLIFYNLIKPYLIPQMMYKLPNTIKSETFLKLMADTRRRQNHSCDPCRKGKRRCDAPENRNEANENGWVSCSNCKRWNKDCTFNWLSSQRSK

[2] = target: T2, NLS-I-SceI-AlcR(1-60) (VC-SAH48-8, VC-SAH91-1) (Saccharomyces cerevisiae / Aspergillus nidulans) (UniProt P03882)
T2 sequence: T1 sequence with K229S

[3] = target: T3, NLS-I-SceI C term mod #2-AlcR(1-60) (VC-SAH129-1, SAH127-1) (Saccharomyces cerevisiae / Aspergillus nidulans) (UniProt P03882)
T3 sequence: T1 sequence with T227A, K229A, S230N, E231Q, T232A

“AGCGGCCGCCTAGGGATCCGACAGGTTACGGGGCGGCGACCTCGCGGGTTTTCGCTATTTATGAAAATTTTCCGGTTTAAGGCGTTTCCGTTCTTCTTCGTCATAACTTAATGTTTTTATTTAAAATACCCTCTGAAAAGAAAGGAAACGACAGGTGCATTACCCTGTTATCCCTAGCGGATCCGCACGTTATCCCTAGCGGATCCGCACGTTATCCCTAT (double strand) [combined target site VC-SAH55-22 (#55)]” was tested, and the activity (% blue plants) [1] was 100, the activity (% blue plants) [2] was 49 and the activity (% blue plants) [3] was 76.
